Measured values reported in publication PMC7949124, “Metallo-β-lactamase domain-containing protein 2 is S-palmitoylated and exhibits acyl-CoA hydrolase activity” (The Journal of Biological Chemistry, 2020).
Substitutions are numbered along the chain they refer to. In names and notes the source's numbering stands.

B1: MBLAC2 (Homo sapiens) (protein)
chain: MSALEWYAHKSLGDGIFWIQERFYESGNRANIWLVRGSEQDVVIDTGLGLRSLPEYLYSSGLLQDREAKEDAARRPLLAVATHVHFDHSGGLYQFDRVAVHHAEAEALARGDNFETVTWLSDSEVVRTPSPGWRARQFRVQAVQPTLILQDGDVINLGDRQLTVMHMPGHSRGSICLHDKDRKILFSGDVVYDGSLIDWLPYSRISDYVGTCERLIELVDRGLVEKVLPGHFNTFGAERLFRLASNYISKAGICHKVSTFAMRSLASLALRVTNSRTSP
notes: N-terminal hexahistidine tag, C-terminal FLAG; baculovirus/Sf9; zinc metalloenzyme; partly S-palmitoylated at Cys254
B2: MBLAC2 (Homo sapiens; C254A) (protein)
chain: B1 chain with C254A
notes: as for B1

Substrate: CCCCCCCCCCCCCCCC(=O)SCCNC(=O)CCNC(=O)[C@H](O)C(C)(C)COP(=O)(O)OP(=O)(O)OC[C@H]1O[C@@H](n2cnc3c(N)ncnc32)[C@H](O)[C@@H]1OP(=O)(O)O
Test: radiometric acyl-CoA hydrolase assay, heptane extraction of [3H]-palmitate
Format: biochemical, Homo sapiens
Conditions: 30 °C, 10 min, 0.05% DDM, labelled compound ([3H] tracer diluted with unlabelled), fitted over 0-10 μM because of substrate inhibition, n = 4
Excerpt: radiometric acyl-CoA hydrolase assay, heptane extraction of [3H]-palmitate on MBLAC2

| Protein | Km | Vmax |
| --- | --- | --- |
| B1 | 1.9 ± 0.6 µM | 0.103 µmol/min/mg |
| B2 | 2.2 ± 0.7 µM | 0.0879 µmol/min/mg |
